Tests used:
[1] = NBD-PS uptake in yeast, flow cytometry; conditions: glycan lost; control: wild-type ALIS5 with ALA2
[2] = confocal microscopy of GFP–ALA2 in tobacco epidermal cells; conditions: glycan lost; control: untagged wild-type ALIS5 with GFP–ALA2

B1: ALIS5: N181Q (protein)
parent chain: MSSTAASSTVGGGGSSEISGVKKTSKRPKYSRFTQQELPACKPILTPRWVILTFLVAGVVFIPLGVICLFASQGVVEIVDRYDTDCIPTSSRNNMVAYIQGEGDKICKRTITVTKAMKHPVYVYYQLENFYQNHRRYVKSRNDAQLRSPKEEHDVKTCAPEDNVGGEPIVPCGLVAWSLFNDTYSFSRNSQQLLVNKKGISWKSDRENKFGKNVFPKNFQKGAPIGGGTLNISKPLSEQEDLIVWMRTAALPTFRKLYGKIETDLHAGDTITVLLQNNYNTYSFNGQKKLVLSTTSWLGGRNDFLGIAYLTVGSICLFLAVTFAVLYLVKPRQLGDPSYLSWNRSAGGLQ
With B1 as the protein, how does the “other: transport activity” value [1] read?
Its value is “abolishes”.

And the localisation_or_trafficking [2]?
The localisation_or_trafficking was “abolishes”.

B2: ALIS5: N231Q/N181Q (protein)
parent chain: B1 parent chain
What does the source list for B2?
other: transport activity [1]: abolishes; localisation_or_trafficking [2]: abolishes

From paper PMC4888458
